Laboratory results reported in patent US20240324599A1, “PESTICIDAL ENZYMES FOR USE ON NEMATODES, INSECTS, AND MOLLUSKS” (priority 2023, published 2024).

Key:
Format in all cases: in vivo
corn [1] = assay: Field trial: esterase on DAP fertilizer, corn yield; conditions: for Yield: corn
Method: (§1) Esterase A (EstA) from Bacillus subtilis (SEQ ID NO:254) was produced via fermentation of a recombinantly produced enzyme in Bacillus subtilis. 1, 2, or 3 fl oz of fermentation product was applied onto 67.5 lb P/A (phosphate equivalent per acre) diammonium phosphate (DAP) fertilizer in a concrete mixer, and allowed to mix for 1 minute. A DAP control treatment without fermentation media was also created. DAP, alone or with fermentation media was distributed across 4 small replicated plots each prior to planting of corn with 4 replicates of 400 ft^2 each at each site.

corn [2] = assay: Field trial: EstA Esterase corn seed treatment, yield; conditions: text to Table 59; 2.5 fl oz/unit
Source text: 2.5 fl oz/unit of EstA Esterase from recombinant Bacillus subtilis fermentation (SEQ ID NO: 254) was coated onto hybrid corn seeds treated with Fludioxinil, Azoxystrobin, mefonoxam, and thiabendaz fungicides, cyantraniliproleinsecticide, peridium 1006 polymer, and (colorant). A control treatment without esterase enzyme was also created. The seed treated with esterase and control seed was planted in replicated trials distributed across 16 replicated plots with 4 replicates of 80 ft2 each at each site.

corn [3] = assay: Field trial: esterase on MAP/DAP fertilizer, corn yield; conditions: for Yield: corn, 2 fl oz/A on MAP/DAP (72 lb/A Phosphate)
Method: Esterase A (EstA) from Bacillus subtilis (SEQ ID NO:254) was produced via fermentation of a recombinantly produced enzyme in Bacillus subtilis. 2 fl oz of fermentation product was applied onto either 72 lb P/A (phosphate equivalent per acre) monoammonium phosphate (MAP) fertilizer or diammonium phosphate (DAP) fertilizer in a concrete mixer, and allowed to mix for 1 minute. A MAP/DAP control treatment without fermentation media was also created. MAP or DAP, alone or with fermentation media was distributed across 4 small replicated plots each prior to planting of corn with 5 replicates of 400 ft2 each at each site (4 site with MAP, 4 sites with DAP, combined in data in Table 52 below).

corn [4] = assay: Field trial: esterase on urea with or without NBPT, corn yield; conditions: for Yield: corn
Method: as §1, with “135” for “67.5”, “N/A (nitrogen” for “P/A (phosphate”, “urea” for “diammonium phosphate (DAP)”, “urea” for “DAP”, “An addition treatment that contained 64 fl oz/ton N-Butyl-thiophosphoric triamide (NBPT) nitrogen stabilizer or 64 fl oz/ton NBPT nitrogen stabilizer with 3 fl oz/A EstA fermentation product was also included in the trial. Urea,” for “DAP,”, “ft2” for “ft^2”

winter wheat [5] = assay: Field trial: esterase on MAP fertilizer, winter wheat yield and vigor; conditions: for Yield: winter wheat
Method: (§2) Esterase A (EstA) from Bacillus subtilis (SEQ ID NO:254) was produced via fermentation of a recombinantly produced enzyme in Bacillus subtilis. 1 fl oz of fermentation product was applied onto 15 lb P/A (phosphate equivalent per acre) monoammonium phosphate (MAP) fertilizer in a concrete mixer and allowed to mix for 1 minute. A MAP control treatment without fermentation media was also created. MAP, alone or with fermentation media was distributed across 4 small replicated plots prior to planting of winter wheat with 5 replicates of 300 ft^2 each at each site.

winter wheat [6] = assay: Field trial: esterase on urea fertilizer, winter wheat yield; conditions: for Yield: winter wheat
Method: as §2, with “oz or 2 fl oz” for “oz”, “N/A (nitrogen” for “P/A (phosphate”, “urea” for “monoammonium phosphate (MAP)”, “urea” for “MAP”, “urea,” for “MAP,”

B1: Bacillus subtilis EstA Esterase (protein, listed as Bacillus subtilis)
chain: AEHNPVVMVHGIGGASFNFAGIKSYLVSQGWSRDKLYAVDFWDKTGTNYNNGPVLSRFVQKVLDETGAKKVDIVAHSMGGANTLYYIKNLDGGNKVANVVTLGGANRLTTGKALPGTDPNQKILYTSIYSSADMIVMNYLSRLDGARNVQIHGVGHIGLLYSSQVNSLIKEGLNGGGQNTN
notes: fermentation product of recombinant Bacillus subtilis
Yield (corn [1]; 1 fl oz/A on DAP (67.5 lb/A Phosphate), base control 196.0): 201.8 Bu/A
Yield (corn [1]; 1 fl oz/A on DAP (67.5 lb/A Phosphate), base control 12319.5): 12684.4 Kg/ha
Yield (corn [1]; 2 fl oz/A on DAP (67.5 lb/A Phosphate), base control 196.0): 204.2 Bu/A
Yield (corn [1]; 2 fl oz/A on DAP (67.5 lb/A Phosphate), base control 12319.5): 12834.7 Kg/ha
Yield (corn [1]; 3 fl oz/A on DAP (67.5 lb/A Phosphate), base control 196.0): 202.6 Bu/A
Yield (corn [1]; 3 fl oz/A on DAP (67.5 lb/A Phosphate), base control 12319.5): 12734.7 Kg/ha
yield versus DAP control, in words (corn [1]; text to Table 54, 1, 2 or 3 fl oz on 67.5 lb P/A DAP): increased the yield
yield versus base seed treatment package, in words (corn [2]): increased the yield
Yield (corn [3]; base control 202.3): 206.6 Bu/A
Yield (corn [3]; base control 12798): 13077 Kg/ha
yield versus MAP/DAP control, in words (corn [3]; text to Table 52, 2 fl oz on 72 lb P/A MAP or DAP): increased the yield
Yield (corn [4]; 1 fl oz/A on Urea (135 lb/A Nitrogen), base control 188.2): 205.0 Bu/A
Yield (corn [4]; 1 fl oz/A on Urea (135 lb/A Nitrogen), base control 11830.4): 12887.5 Kg/ha
Yield (corn [4]; 2 fl oz/A on Urea (135 lb/A Nitrogen), base control 188.2): 195.8 Bu/A
Yield (corn [4]; 2 fl oz/A on Urea (135 lb/A Nitrogen), base control 11830.4): 12309.9 Kg/ha
Yield (corn [4]; 3 fl oz/A on Urea (135 lb/A Nitrogen), base control 188.2): 195.6 Bu/A
yield versus urea control and NBPT containing treatments, in words (corn [4]; text to Table 55, 1, 2 or 3 fl oz on 135 lb N/A urea): increased the yield
vigor of young wheat seedlings, in words (winter wheat [5]; text to Table 51): increased the vigor
yield versus MAP control, in words (winter wheat [5]; text to Table 51, 1 fl oz fermentation product on 15 lb P/A MAP): increased the yield
Vigor Score (1 to 5 scale, 5 is highest) (winter wheat [5]; winter wheat seedlings, 1 fl oz/A on MAP (15 lb/A Phosphate), base control 4.0): 4.13
Yield (winter wheat [5]; 1 fl oz/A on MAP (15 lb/A Phosphate), base control 61.33): 62.82 Bu/A
Yield (winter wheat [5]; 1 fl oz/A on MAP (15 lb/A Phosphate), base control 4124.5): 4224.7 Kg/ha
yield versus urea control, in words (winter wheat [6]; text to Table 53, 1 or 2 fl oz on 15 lb N/A urea): increased the yield
Yield (winter wheat [6]; 1 fl oz/A on Urea (15 lb/A Nitrogen), base control 76.1): 79.6 Bu/A
Yield (winter wheat [6]; 1 fl oz/A on Urea (15 lb/A Nitrogen), base control 5117.8): 5353.2 Kg/ha
Yield (winter wheat [6]; 2 fl oz/A on Urea (15 lb/A Nitrogen), base control 76.1): 79.9 Bu/A
Yield (winter wheat [6]; 2 fl oz/A on Urea (15 lb/A Nitrogen), base control 5117.8): 5375.4 Kg/ha
